# IntAct's records for PubMed 25266290
# B1: Ras-related protein Rab-5A (Homo sapiens), P20339 (parent)
# chain: MASRGATRPNGPNTGNKICQFKLVLLGESAVGKSSLVLRFVKGQFHEFQESTIGAAFLTQTVCLDDTTVKFEIWDTAGQERYHSLAPMYYRGAQAAIVVYDITNEESFARAKNWVKELQRQASPNIVIALSGNKADLANKRAVDFQEAQSYADDNSLLFMETSAKTSMNVNEIFMAIAKKLPKNEPQNPGANSARGRGVDLTEPTQPTRNQCCSN
# partner: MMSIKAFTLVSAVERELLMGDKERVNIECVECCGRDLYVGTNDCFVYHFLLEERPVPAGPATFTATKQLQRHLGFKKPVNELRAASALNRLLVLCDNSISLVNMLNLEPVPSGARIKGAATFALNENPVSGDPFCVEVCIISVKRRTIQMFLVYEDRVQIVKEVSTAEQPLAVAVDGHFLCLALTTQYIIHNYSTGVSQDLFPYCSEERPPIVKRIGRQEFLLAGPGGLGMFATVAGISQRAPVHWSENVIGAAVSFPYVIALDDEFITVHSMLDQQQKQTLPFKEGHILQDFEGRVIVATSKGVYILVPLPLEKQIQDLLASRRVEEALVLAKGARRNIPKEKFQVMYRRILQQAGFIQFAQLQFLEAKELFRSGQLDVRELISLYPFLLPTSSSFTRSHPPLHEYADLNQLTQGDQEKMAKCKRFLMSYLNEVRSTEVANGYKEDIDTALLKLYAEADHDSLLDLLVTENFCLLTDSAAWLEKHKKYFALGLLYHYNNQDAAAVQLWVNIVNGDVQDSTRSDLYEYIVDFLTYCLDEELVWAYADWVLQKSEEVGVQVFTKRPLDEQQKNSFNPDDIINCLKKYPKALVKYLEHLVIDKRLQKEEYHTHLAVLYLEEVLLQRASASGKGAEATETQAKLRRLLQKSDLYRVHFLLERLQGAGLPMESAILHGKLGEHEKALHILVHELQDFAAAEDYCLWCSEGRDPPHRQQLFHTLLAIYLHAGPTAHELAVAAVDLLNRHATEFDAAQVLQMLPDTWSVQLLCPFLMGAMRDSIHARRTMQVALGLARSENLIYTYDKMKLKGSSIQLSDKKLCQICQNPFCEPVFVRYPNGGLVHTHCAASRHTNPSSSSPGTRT
# Variants of: B1
# Conditions: with tgfa1_human TGFBRAP1, Q8WUH2
row,effect of a mutation on the interaction,Variant
1,decreasing interaction,MASRGATRPNGPNTGNKICQFKLVLLGESAVGKNSLVLRFVKGQFHEFQESTIGAAFLTQTVCLDDTTVKFEIWDTAGQERYHSLAPMYYRGAQAAIVVYDITNEESFARAKNWVKELQRQASPNIVIALSGNKADLANKRAVDFQEAQSYADDNSLLFMETSAKTSMNVNEIFMAIAKKLPKNEPQNPGANSARGRGVDLTEPTQPTRNQCCSN [S34N]
